Columns and labels:
[1] = test system: nuclei of nondividing cells; assay: Nuclear localization of DNA after cytoplasmic microinjection; assay type: cell-based
From the text: (D) Schematic of ACE-tRNA MC and CEDT with SV40 DTS.
Inventors have screened over 60 strong general and cell-specific promoters and found seven DTSs. Of these, two perform ubiquitously, while five bind specific transcription factors expressed in a subset of cells.
As an alternative approach to directly labeling the plasmid with Cy3-PNAs, one can also carry out fluorescent in situ hybridization (FISH) to visualize injected DNA. DTS candidate plasmids can be tested for nuclear import activity over a 30 min to 8 hr period in microinjected A549 lung epithelial cells (Dean, D. A. Exp. Cell Res. 230, 293-302 (1997), Dean, D. A., et al., Exp. Cell Res. 253, 713-722 (1999), and Vacik, J., et al., Gene Therapy 6, 1006-1014 (1999)). […] This approach can allow one to rank sequences relative to the SV40 DTS based on their speed of nuclear import. Negative controls of the pUC57 plasmid with no DTS and a positive control of the pUC57-SV40 DTS can also be injected to ensure that the cells remain viable after injection and have the ability to transport DNA into the nucleus.
Importantly, existing MC and CEDT technologies are […] at PTC suppression in both cell culture and in vivo (FIGS. 4-7 and 10). […] Therefore, to improve nuclear targeting, transcription and PTC suppression, ACE-tRNA^ArgUGA MCs and CEDTs with the 72 nucleotide SV40 DTS and generally active DTS are generated. […]

p.G542X-CFTR mRNA = assay: qPCR of steady state CFTR mRNA (NMD inhibition) in p.G542X 16HBE14o- cells; assay type: cell-based, human; settings: 48 hours after transfection, ACE-tRNA^Gly delivered as plasmid
From the text: (§1) (A) Representative image of 16HBE14o- cells transfected on Transwells. (B) Representative Cl^− short circuit current traced from WT (Black), p.R1162X 16HBE14oe- cells transfected with empty vector (red) and 500 bp ACE-tRNA^Arg CEDTs (blue) in Ussing chamber recordings. […] All constructs were transfected at equal amounts. *p<0.05; **p<0.0001.
(§2) The majority of prior studies had used suppressor tRNAs to rescue PTCs encoded from cDNAs. […] In this example, 16HBE14o- cells, human bronchiole epithelial cell line, were used to determine ACE-tRNAs PTC suppression activity within the endogenous genomic landscape. Also used were mutant 16HBE14o- cells, which were CRISPR/Cas9 modified to harbor CF causing PTCs at positions p.G542X-, p.R1162X- and p.W1282X-CFTR. The cells were used to study CFTR and airway epithelia biology (Cozens, A. L. et al. American journal of respiratory cell and molecular biology 10, 38-47 (1994)).
(§3) The inventors next looked to see if ACE-tRNAs inhibited NMD following transfection of ACE-tRNA transcripts.

UGA codon = assay: PTC suppression by ACE-tRNA: codon specificity and comparison with aminoglycosides; assay type: cell-based
From the text: Using a novel high throughput cloning (HTC) and screening (HTS) method, a library of more than 500 suppressor tRNAs (ACE-tRNAs) was recently developed. In the library, the anticodon of human tRNA genes were engineered to recognize disease causing PTC codons (UAG, UAA and UGA). The ACE-tRNAs platform targeted all possible PTCs that are resultant of one nucleotide change from translated codons (tRNA^ArgUGA, tRNA^GlnUAA, tRNA^GlnUAG, tRNA^TrpUGA, tRNA^TrpUAG, tRNA^GluUAA, tRNA^GluUAG, tRNA^CysUGA, tRNA^TyrUAG, tRNA^TyrUAA, tRNA^LeuUGA, tRNA^LeuUAG, tRNA^LeuUAA, tRNA^LysUAG, tRNA^LysUGA, tRNA^SerUGA, tRNA^SerUAG, and tRNA^SerUAA).

PTC = assay: High resolution mass-spectrometry of the amino acid encoded at the PTC
Description: Assays were carried out to ascertain whether ACE-tRNAs identified in the screen were functionalized at the expense of recognition by the aminoacyl-tRNA synthetase. […] It was confirmed that using high resolution mass-spectrometry, the cognate amino acid for both ACE-tRNA^GlyUGA and -tRNA^TrpUGA were encoded with high fidelity, resulting in seamless PTC suppression.

p.W1282X-CFTR mRNA = assay: qPCR of steady state CFTR mRNA (NMD inhibition) in p.W1282X 16HBE14o- cells; assay type: cell-based, human; settings: pW1282X cells; 48 hours after transfection; equal amounts; plain ACE-tRNA^Leu = plasmid
From the text: as §1, §2, §3
It had been previously shown that leucine at CFTR p.W1282 (p.W1282L) gives ˜80% WT CFTR function, as measured with Ussing chamber recordings (Xue, X. et al., Human molecular genetics 26, 3116-3129, doi:10.1093/hmg/ddx196 (2017)).

W1282X-CFTR mRNA = assay: CFTR mRNA expression in W1282X-CFTR 16HBE14ge- cells; assay type: cell-based, human
Description: In this example, studies were carried out to examine and compare rescues of endogenous CFTR PTCs with a conventional PTC readthrough agent (i.e., G418) and ACE-tRNAs delivered in plasmids. To that end, an engineered human bronchiole epithelial cell line, 16HBE14ge-, was used (Valley et al., Journal of Cystic Fibrosis, Volume 18, Issue 4, July 2019, Pages 476-483). G418 (Geneticin) is a standard PTC readthrough agent that works by interacting with the decoding center of the ribosome and promoting the suppression of PTCs with near-cognate tRNAs, thus incorporating wrong amino acids in many instances. Due to its non-specific nature, rescue by G418 results in generation of a missense mutation from a nonsense mutation. In contrast, ACE-tRNAs as disclosed herein put in the desired amino acid.
To carry out the assays, wildtype 16HBE14ge- cells or 16HBE14ge- cells having the W1282X-CFTR or R1162X-CFTR mutation were (i) treated with 100 uM G418 or vehicle, or (ii) transfected with empty plasmids or various plasmids encoding one or four copies of three ACE-tRNAs (SEQ ID NOs: 8, 4, and 1): 1×ACE-tRNA^Arg 4×ACE-tRNA^Arg, 1×ACE-tRNA^Leu 4×ACE-tRNA^Leu, 1×ACE-tRNA^Trp, and 4×ACE-tRNA^Trp in the manner described in Example 4. After 48 hours, the corresponding CFTR mRNA expression levels were then determined.
In this example, assays were carried out to examine and compare rescues of endogenous CFTR PTCs with ACE-tRNAs delivered in different formats e.g., plasmids, CEDTs, and MCs. The above described 16HBE14ge- cells, which expressed the PTC readthrough reporter piggyBac transgene (FIG. 15A) was used. More specifically, the cells were transfected with plasmids, CEDTs, or MCs encoding ACE-tRNAs. The cells were then sorted by FACS and mRNA was isolated from the non-green cells and green cells. Targeted RT-qPCR was used to quantify CFTR mRNA expression. […]
Further assays were carried out using 16HBEge- cells having W1282X-CFTR and the PTC readthrough reporter piggyBac transgene. […] The cells were NOT sorted by FACS for mRNA expression analysis, rather the entire population was analyzed.

B1: SV40 sequence: DNA sequence from the SV40 genome containing the enhancer repeats, DNA nuclear targeting sequence (nucleic acid)
DNA: ATGCTTTGCATACTTCTGCCTGCTGGGGAGCCTGGGGACTTTCCACACCCTAACTGACACACATTCCACAGCTGGTTGGTACCTGCA
modifications: listed as DNA, chemistry not fully specified
- localization after cytoplasmic injection [1]: nuclear localization
- time to plasmid nuclear import [1]: ≤ 30 min

B2: ACE-tRNA^GlyUGA: anti-codon edited glycine tRNA recognizing the UGA PTC, SEQ ID NO: 5 (nucleic acid)
chain: GCGUUGGUGGUAUAGUGGUUAGCAUAGCUGCCUUCAAAGCAGUUGACCCGGGUUCGAUUCCCGGCCAACGCA
modifications: expressed or natural sequence
- inhibition of NMD measured by qPCR (p.G542X-CFTR mRNA): significantly inhibited NMD
- stop codon specificity (UGA codon): specific for the UGA codon
- PTC suppression compared with AMG G418 and gentamicin (UGA codon; 48 hr incubation in HEK293 cells): significantly outperformed
- fidelity of encoding the cognate amino acid (PTC): high fidelity

B3: ACE-tRNA^LeuUGA: anti-codon edited leucine tRNA recognizing the UGA PTC, SEQ ID NO: 4 (nucleic acid)
chain: ACCAGAAUGGCCGAGUGGUUAAGGCGUUGGACUUCAGAUCCAAUGGAUUCAUAUCCGCGUGGGUUCGAACCCCACUUCUGGUA
modifications: expressed or natural sequence
- inhibition of NMD / rescue measured by qPCR (p.W1282X-CFTR mRNA): significantly inhibited NMD
- rescue of CFTR mRNA (W1282X-CFTR mRNA; delivered via plasmids, FACS-sorted GFP+ and GFP− cells, RT-qPCR): significantly rescued
- suppression of W1282X compared with Tryptophan ACE-tRNA (W1282X-CFTR mRNA; plasmids, 48 hours): more effectively
- inhibiting nonsense mediated decay compared with G418 (W1282X-CFTR mRNA; plasmids, G418 100 uM, 48 hours, W1282X-CFTR cells): significantly more effective

Reference: patent US20230272378A1, “ENCODING AND EXPRESSION OF ACE-tRNAs” (University of Rochester, priority 2020, published 2023)
